{
  "source": "patent US20070020743A1",
  "about": "“Undecaprenyl pyrophosphate synthase (upps)enzyme and methods of use” (priority 2001, published 2007)",
  "key": {"[1]": {"tested_on": "CC(C)=CCC/C(C)=C/CC/C(C)=C/CO[P@@](=O)(O)OP(=O)(O)O", "experiment": "purified protein, by the assay type", "conditions": "other: substrate Km of S. pneumoniae UPPS; pH optimum 7.5-8.0; pH 7.5; 25.0 °C", "method": "The reaction was incubated at 25° C. for 25 min and stopped by addition of EDTA to 50 mM. The reaction was extracted with equal volume of 1-butanol and the radioactivity in the butanol phase was measured with a liquid scintillation counter (Shimizu, N., T. Koyama, and K. Ogura. (1998) J. Biol. Chem. 273:19476-19481)."}, "[2]": {"tested_on": "C=C(C)CCO[P@@](=O)(O)OP(=O)(O)O", "experiment": "purified protein, by the assay type", "conditions": "other: substrate Km of S. pneumoniae UPPS; pH optimum 7.5-8.0; pH 7.5; 25.0 °C"}},
  "data": [
    {"substance": "S. pneumoniae UPPS (Streptococcus pneumoniae TIGR4)", "values": [
      {"measurement": "Km", "setting": "[1]", "value": 0.5, "unit": "µM"},
      {"measurement": "Km", "setting": "[2]", "value": 3.6, "unit": "µM"}
    ]}
  ]
}
